Source: PMC3605331, “Cloning and characterization of a novel cold-active glycoside hydrolase family 1 enzyme with β-glucosidase, β-fucosidase and β-galactosidase activities” (BMC Biotechnology, 2013)

Key:
[1] = system: T1, O=[N+]([O-])c1ccc(O[C@@H]2O[C@H](CO)[C@@H](O)[C@H](O)[C@H]2O)cc1; experiment: purified protein; assay type: biochemical, uncultured bacterium; details: 20 mM phosphate buffer, 20°C, substrate 1.0-5.0 mM
T1 construct: E. coli LMG194; monomer

[2] = system: T2, O=[N+]([O-])c1ccccc1O[C@@H]1O[C@H](CO)[C@H](O)[C@H](O)[C@H]1O; experiment: purified protein; assay type: biochemical, uncultured bacterium; details: 20 mM phosphate buffer, 20°C, substrate 1.0-5.0 mM
T2 construct: E. coli LMG194; monomer

BglMKg (uncultured bacterium) gave a Km [1] of 0.16 ± 0.03 mM, a kcat [1] of 11.7 ± 0.26 s⁻¹ and a kcat/Km [1] of 73400 M⁻¹ s⁻¹. It also gave a Km [2] of 9.04 ± 1.39 mM, a kcat [2] of 12.4 ± 1.35 s⁻¹ and a kcat/Km [2] of 1370 M⁻¹ s⁻¹.
